Test: yeast display, Sf9 membrane polyspecificity reagent, FACS + sequencing; frameworks hold sequencing errors
How it was run: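 After 36–48 hours of galactose induction, yeast (Saccharomyces cerevisiae BJ5465) displaying a synthetic nanobody library were stained at 4 °C for 1 hour with 10% biotinylated, detergent-solubilized Sf9 membrane reagent. Streptavidin microbeads enriched the stained cells before FACS sorting into low and high (top ~1%) gates on anti-HA and streptavidin fluorescence. Each clone's polyreactivity label reflects its gate of origin.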

Row | Sequence | polyreactivity (PSR sort gate)
1 | QVQLVESGGGLVQAGGSLRLSCAASGRTFSDYAMGWYRQAPGKERELVAAITSSSGTTYYADSVKGRFTISRDNAKNTVYFQMNSLKPEDTAVYYCAAGHPYSLSERYNYWGQGTQVTVSS | low polyreactivity
2 | QVQLVESGGGLVQAGGSLRLSCAASGRTFSFYAMGWYRQAPGNERELVASMSRSGASTYYADSVKGRFTISRDNAKNTVYLQMNSLKPEDTAVYYCAAEWGRRYIYYYWGQGTQVTVSS | high polyreactivity
3 | QVQLVESGGGLVQAGGSLRLSCAASGRTFSGNTMGWYRQAPGKEREFVATISQSGTITSYADSVKGRFTISRDNAKNTVYLQMNSLKPEDTAVYYCAARAVYYSSRGWITRFDYWGQGTQVTVSS | high polyreactivity
4 | QVQLVESGGGLVQAGGSLRLSCAASGRTFSGNTMVWYRQAPGKERELVAAITGRGGSTYYADSVKGRFTISRDNAKNTVYLQMNSKKPEDTAVYYCAALRYTFAGRFDYWGQGTQVTVSS | high polyreactivity
5 | QVQLVESGGGLVQAGGSLRLSCAASGRTFSGYAMGWYRQAPGKERELVAAIRLSGGSTYYADSVKGRFTISRDNAKNTVYLQMNSLKPEVTAVYYCARYHGFGYDYWGQGTQGTVSS | low polyreactivity
6 | QVQLVESGGGLVQAGGSLRLSCAASGRTFSGYAMGWYRQAPGKERELVAAITGRGGSTYYADSVKGRFTISRDNAKNTVYLQMNSLKPEDTAVYYCAAYGIWYRVDYWGQGTQVTVSS | high polyreactivity
7 | QVQLVESGGGLVQAGGSLRLSCAASGRTFSGYAMGWYRQAPGKERELVAGITWNGGRTYYADSVKGRFTISRDNAKNTVYLQMNILKPDDTAVYYCYKLGAVYPKYGYWGQGTQVTVSS | high polyreactivity
8 | QVQLVESGGGLVQAGGSLRLSCAASGRTFSGYAMGWYRQAPGTERELVAAIDRGDGTNYADSVKGRFTISRDNAKNTVYLQMNSLKPEDTAVYYCAADYSYGSTSHTYTGFDYWGQGTQVTVSS | low polyreactivity
9 | QVQLVESGGGLVQAGGSLRLSCAASGRTFSGYPMGWYRPAPGKERELVAAISWSGGSTYYADSVKGRFTISRDNAKNTVYLQMNSLKPEDTAVYYCAAYTYSFRANHDYWGQGTQVTVSS | high polyreactivity
10 | QVQLVESGGGLVQAGGSLRLSCAASGRTFSHYAMGWYRQAPGKERELVAGISSGSRTNYADSVKGRFTISRDNAKNTVYLQMNSLKPEDTAVYYCAARTKYLKGGYWGQGTQVTVSS | high polyreactivity
11 | QVQLVESGGGLVQAGGSLRLSCAASGRTFSIYAMGLYRQAPGKERELVAAISNGGRTKYADSVKGRFTISRDNAKNTVYLQMNSLKPEDTAVYYCAAETWYVAYGYWGQGTQVTVSS | high polyreactivity
12 | QVQLVESGGGLVQAGGSLRLSCAASGRTFSKYAMGWDRPAPGKERELVAGISRSGGSTYYADSVKGRFTISRDNAKNTVYLQMNSLKPEDTAVYYCAKRSVGGTGYYWGQGTQVTVSS | high polyreactivity
13 | QVQLVESGGGLVQAGGSLRLSCAASGRTFSKYAMGWYRQAPGKERELVAAIRWSGGSTYYADSVKGRFTISRDNAKNTVYLQMNSLKPEDTAVYYSAKRSRGLKFDYWGLGTQVTVSS | high polyreactivity
14 | QVQLVESGGGLVQAGGSLRLSCAASGRTFSNYAMGWYRQAPGKERELVAAISQRGGSTYYADSVKGRFTISRDNAKNTVYLLMNSLKPEDTAVYYCNARQTTATGGTGNYWGQGTQVTVSS | high polyreactivity
15 | QVQLVESGGGLVQAGGSLRLSCAASGRTFSNYAMGWYRQAPGKERELVAAISQRGGSTYYADSVKGRFTISRDNAKNTVYLQMNSLKPEDTAVYYCNARQTTATVGTGNYWGQGTQVTVSS | high polyreactivity
16 | QVQLVESGGGLVQAGGSLRLSCAASGRTFSPYMGWSRQAPGKERELVAAISKSGGRTYYADSVKWSFTISRDNAKNTVYLQMNSLQPEDTAVYYCATSGNNYYYALYGYWVQGTQVTVSS | low polyreactivity
17 | QVQLVESGGGLVQAGGSLRLSCAASGRTFSPYPMGWYRQAPGKERELGAAINWTGGSTYYADSVKGRFTISRDNAKNTVYLQMNSLKPEVTAVYYCNADWWYGYDYWGQGTQVTVSS | low polyreactivity
